Source: the supplement of paper PMC11246515
± gives the standard deviation of the averaged measurements.

Experiment: total protein half-life in vivo (active degradation + dilution); higher = more stable protein
[1] = E. coli NCM3722 delta-clpP delta-lon delta-hslV, growth: N-lim chemostat, doubling time 6 h
[2] = E. coli NCM3722 delta-clpP, growth: N-lim chemostat, doubling time 6 h
[3] = E. coli NCM3722 delta-hslV, growth: N-lim chemostat, doubling time 6 h
[4] = E. coli NCM3722 delta-lon, growth: N-lim chemostat, doubling time 6 h
[5] = E. coli NCM3722 delta-smpB, growth: N-lim chemostat, doubling time 6 h
[6] = wild type E. coli NCM3722, growth: C-lim chemostat, doubling time 3 h
[7] = wild type E. coli NCM3722, growth: C-lim chemostat, doubling time 6 h
[8] = wild type E. coli NCM3722, growth: C-lim chemostat, doubling time 12 h
[9] = wild type E. coli NCM3722, growth: N-lim chemostat, doubling time 6 h
[10] = wild type E. coli NCM3722, growth: N-lim chemostat, doubling time 12 h
[11] = wild type E. coli NCM3722, growth: P-lim chemostat, doubling time 6 h
[12] = wild type E. coli NCM3722, growth: P-lim chemostat, doubling time 12 h

Sequence	total protein half-life in vivo [1] [h]	total protein half-life in vivo [2] [h]	total protein half-life in vivo [3] [h]	total protein half-life in vivo [4] [h]	total protein half-life in vivo [5] [h]	total protein half-life in vivo [6] [h]	total protein half-life in vivo [7] [h]	total protein half-life in vivo [8] [h]	total protein half-life in vivo [9] [h]	total protein half-life in vivo [10] [h]	total protein half-life in vivo [11] [h]	total protein half-life in vivo [12] [h]
MAELSDQEMLRYNRQIILRGFDFDGQEALKDSRVLIVGLGGLGCAASQYLASAGVGNLTLLDFDTVSLSNLQRQTLHSDATVGQPKVESARDALTRINPHIAITPVNALLDDAELAALIAEHDLVLDCTDNVAVRNQLNAGCFAAKVPLVSGAAIRMEGQITVFTYQDGEPCYRCLSRLFGENALTCVEAGVMAPLIGVIGSLQAMEAIKMLAGYGKPASGKIVMYDAMTCQFREMKLMRNPGCEVCGQ	5.3 ± 1.4	4.37 ± 0.4	4.1 ± 0.1	6.67 ± 1.7	4.36 ± 0.4	3.03 ± 0.46	6.09 ± 0.5	11.3 ± 0.97	4.66 ± 0.53	9.95	5.7448 ± 0.0056	13.2 ± 1.6
MQGKALQDFVIDKIDDLKGQDIIALDVQGKSSITDCMIICTGTSSRHVMSIADHVVQESRAAGLLPLGVEGENSADWIVVDLGDVIVHVMQEESRRLYELEKLWS [P0AAT6]	6.28 ± 1.2	3.63 ± 1.7	2.21 ± 0.063	5.5 ± 0.84	2.65 ± 0.19	2.6 ± 0.59	3.58	> 16	2.72	3.51 ± 0.17	2.2	4.01
MPRFAANLSMMFTEVPFIERFAAARKAGFDAVEFLFPYNYSTLQIQKQLEQNHLTLALFNTAPGDINAGEWGLSALPGREHEAHADIDLALEYALALNCEQVHVMAGVVPAGEDAERYRAVFIDNIRYAADRFAPHGKRILVEALSPGVKPHYLFSSQYQALAIVEEVARDNVFIQLDTFHAQKVDGNLTHLIRDYAGKYAHVQIAGLPDRHEPDDGEINYPWLFRLFDEVGYQGWIGCEYKPRGLTEEGLGWFDAWR	3.98	2.21	2.23	2.48 ± 0.15	2.41 ± 0.048	2.829 ± 0.0073	3.68 ± 0.23	6.54 ± 0.17		3.45	4.28	8.69 ± 0.052
MFTFIKKVIKTGTATSSYPLEPIAVDKNFRGKPEQNPQQCIGCAACVNACPSNALTVETDLATGELAWEFNLGHCIFCGRCEEVCPTAAIKLSQEYELAVWKKEDFLQQSRFALCNCRVCNRPFAVQKEIDYAIALLKHNGDSRAENHRESFETCPECKRQKCLVPSDRIELTRHMKEAI	2.95											
MNILQFNVRLAEGGAAGVALDLHQRALQQGLASHFVYGYGKGGKESVSHQNYPQVIKHTPRMTAMANIALFRLFNRDLFGNFNELYRTITRTAGPVVLHFHVLHSYWLNLKSVVRFCEKVKNHKPDVTLVWTLHDHWSVTGRCAFTDGCEGWKTGCQKCPTLNNYPPVKIDRAHQLVAGKRQLFREMLALGCQFISPSQHVADAFNSLYGPGRCRIINNGIDMATEAILADLPPVRETQGKPKIAVVAHDLRYDGKTNQQLVREMMALGDKIELHTFGKFSPFTAGNVVNHGFETDKRKLMSALNQMDALVFSSRVDNYPLILCEALSIGVPVIATHSDAAREVLQKSGGKTVSEEEVLQLVQLSKPEIAQAIFGTTLAEFSQRSRAAYSGQQMLEEYVNFYQNL				5.88 ± 0.64	5.05 ± 0.76							
MRHPLVMGNWKLNGSRHMVHELVSNLRKELAGVAGCAVAIAPPEMYIDMAKREAEGSHIMLGAQNVDLNLSGAFTGETSAAMLKDIGAQYIIIGHSERRTYHKESDELIAKKFAVLKEQGLTPVLCIGETEAENEAGKTEEVCARQIDAVLKTQGAAAFEGAVIAYEPVWAIGTGKSATPAQAQAVHKFIRDHIAKVDANIAEQVIIQYGGSVNASNAAELFAQPDIDGALVGGASLKADAFAVIVKAAEAAKQA [P0A858]	5.91 ± 0.91	5.22 ± 0.98	4.718 ± 0.03	5.61 ± 0.81	4.59 ± 0.26	3.057 ± 0.024	5.92 ± 0.066	10.6 ± 0.24	4.75 ± 0.24	8.33 ± 0.46	5.79 ± 0.17	13.1 ± 0.81
MRVNNGLTPQELEAYGISDVHDIVYNPSYDLLYQEELDPSLTGYERGVLTNLGAVAVDTGIFTGRSPKDKYIVRDDTTRDTFWWADKGKGKNDNKPLSPETWQHLKGLVTRQLSGKRLFVVDAFCGANPDTRLSVRFITEVAWQAHFVKNMFIRPSDEELAGFKPDFIVMNGAKCTNPQWKEQGLNSENFVAFNLTERMQLIGGTWYGGEMKKGMFSMMNYLLPLKGIASMHCSANVGEKGDVAVFFGLSGTGKTTLSTDPKRRLIGDDEHGWDDDGVFNFEGGCYAKTIKLSKEAEPEIYNAIRRDALLENVTVREDGTIDFDDGSKTENTRVSYPIYHIDNIVKPVSKAGHATKVIFLTADAFGVLPPVSRLTADQTQYHFLSGFTAKLAGTERGITEPTPTFSACFGAAFLSLHPTQYAEVLVKRMQAAGAQAYLVNTGWNGTGKRISIKDTRAIIDAILNGSLDNAETFTLPMFNLAIPTELPGVDTKILDPRNTYASPEQWQEKAETLAKLFIDNFDKYTDTPAGAALVAAGPKL	4.17 ± 0.081	3.55 ± 0.13	3.29 ± 0.037	4.19 ± 0.05	3.45 ± 0.21	3.53 ± 0.18	6.17 ± 0.42	10.5 ± 0.7	3.69 ± 0.2	5.13 ± 0.55	5.5 ± 0.58	10.7 ± 0.72
MSFMVSEEVTVKEGGPRMIVTGYSSGMVECRWYDGYGVKREAFHETELVPGEGSRSAEEV	5.18	0.609 ± 0.66				0.36	0.469					
MKAAAKTQKPKRQEEHANFISWRFALLCGCILLALAFLLGRVAWLQVISPDMLVKEGDMRSLRVQQVSTSRGMITDRSGRPLAVSVPVKAIWADPKEVHDAGGISVGDRWKALANALNIPLDQLSARINANPKGRFIYLARQVNPDMADYIKKLKLPGIHLREESRRYYPSGEVTAHLIGFTNVDSQGIEGVEKSFDKWLTGQPGERIVRKDRYGRVIEDISSTDSQAAHNLALSIDERLQALVYRELNNAVAFNKAESGSAVLVDVNTGEVLAMANSPSYNPNNLSGTPKEAMRNRTITDVFEPGSTVKPMVVMTALQRGVVRENSVLNTIPYRINGHEIKDVARYSELTLTGVLQKSSNVGVSKLALAMPSSALVDTYSRFGLGKATNLGLVGERSGLYPQKQRWSDIERATFSFGYGLMVTPLQLARVYATIGSYGIYRPLSITKVDPPVPGERVFPESIVRTVVHMMESVALPGGGGVKAAIKGYRIAIKTGTAKKVGPDGRYINKYIAYTAGVAPASQPRFALVVVINDPQAGKYYGGAVSAPVFGAIMGGVLRTMNIEPDALTTGDKNEFVINQGEGTGGRS [P0AD68]	2.8 ± 0.043	2.39 ± 0.032	2.53 ± 0.39	2.31 ± 0.099	2.77 ± 0.059	1.75 ± 0.11	2.35 ± 0.13	2.75 ± 0.35	2.61 ± 0.035	3.15 ± 0.18	3.311 ± 0.027	4.83 ± 0.71
